Measurements: patent US6562613
“Also recorded” adds a separate entry of the source.

Target: 14C-labeled type I procollagen purified from chick embryo fibroblasts, P02457
Sequence (P02457 23-1453, chain 1 of 2): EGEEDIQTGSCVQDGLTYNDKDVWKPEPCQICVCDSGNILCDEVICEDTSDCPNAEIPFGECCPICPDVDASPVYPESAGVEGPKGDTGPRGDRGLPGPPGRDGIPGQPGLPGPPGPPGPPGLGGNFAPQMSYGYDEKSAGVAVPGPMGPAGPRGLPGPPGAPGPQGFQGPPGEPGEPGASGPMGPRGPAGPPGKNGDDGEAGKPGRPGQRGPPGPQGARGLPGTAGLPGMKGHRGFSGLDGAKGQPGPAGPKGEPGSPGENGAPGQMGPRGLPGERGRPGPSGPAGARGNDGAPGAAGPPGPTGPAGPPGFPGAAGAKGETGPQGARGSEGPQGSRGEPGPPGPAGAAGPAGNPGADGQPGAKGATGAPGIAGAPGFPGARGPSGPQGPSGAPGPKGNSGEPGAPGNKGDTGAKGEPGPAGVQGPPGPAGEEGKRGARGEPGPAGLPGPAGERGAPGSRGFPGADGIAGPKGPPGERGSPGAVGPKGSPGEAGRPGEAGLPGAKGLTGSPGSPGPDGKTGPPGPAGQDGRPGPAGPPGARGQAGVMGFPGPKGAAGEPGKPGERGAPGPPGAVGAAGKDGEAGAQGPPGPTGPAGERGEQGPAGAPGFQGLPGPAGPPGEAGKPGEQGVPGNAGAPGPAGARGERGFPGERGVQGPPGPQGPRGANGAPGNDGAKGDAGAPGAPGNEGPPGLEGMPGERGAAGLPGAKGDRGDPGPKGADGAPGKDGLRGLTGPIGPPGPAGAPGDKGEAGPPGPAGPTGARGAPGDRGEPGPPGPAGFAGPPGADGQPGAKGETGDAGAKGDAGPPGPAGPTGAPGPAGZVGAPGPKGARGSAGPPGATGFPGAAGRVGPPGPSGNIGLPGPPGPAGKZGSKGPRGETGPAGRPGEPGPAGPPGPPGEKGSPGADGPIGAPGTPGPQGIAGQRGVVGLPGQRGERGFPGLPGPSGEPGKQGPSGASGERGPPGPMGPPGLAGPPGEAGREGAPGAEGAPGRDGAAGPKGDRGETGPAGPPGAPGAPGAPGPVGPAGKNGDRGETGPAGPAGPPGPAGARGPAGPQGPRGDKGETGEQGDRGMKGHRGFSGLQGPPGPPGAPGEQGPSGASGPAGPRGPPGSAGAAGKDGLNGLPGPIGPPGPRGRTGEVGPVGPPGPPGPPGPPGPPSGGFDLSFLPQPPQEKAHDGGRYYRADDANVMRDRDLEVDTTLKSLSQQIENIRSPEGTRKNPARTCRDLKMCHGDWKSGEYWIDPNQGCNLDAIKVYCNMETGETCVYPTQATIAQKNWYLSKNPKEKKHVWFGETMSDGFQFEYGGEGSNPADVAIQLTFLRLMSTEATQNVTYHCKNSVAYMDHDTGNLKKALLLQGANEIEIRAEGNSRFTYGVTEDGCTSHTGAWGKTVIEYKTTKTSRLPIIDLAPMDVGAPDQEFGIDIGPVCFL
Sequence (chain, as listed by the source, chain 2 of 2): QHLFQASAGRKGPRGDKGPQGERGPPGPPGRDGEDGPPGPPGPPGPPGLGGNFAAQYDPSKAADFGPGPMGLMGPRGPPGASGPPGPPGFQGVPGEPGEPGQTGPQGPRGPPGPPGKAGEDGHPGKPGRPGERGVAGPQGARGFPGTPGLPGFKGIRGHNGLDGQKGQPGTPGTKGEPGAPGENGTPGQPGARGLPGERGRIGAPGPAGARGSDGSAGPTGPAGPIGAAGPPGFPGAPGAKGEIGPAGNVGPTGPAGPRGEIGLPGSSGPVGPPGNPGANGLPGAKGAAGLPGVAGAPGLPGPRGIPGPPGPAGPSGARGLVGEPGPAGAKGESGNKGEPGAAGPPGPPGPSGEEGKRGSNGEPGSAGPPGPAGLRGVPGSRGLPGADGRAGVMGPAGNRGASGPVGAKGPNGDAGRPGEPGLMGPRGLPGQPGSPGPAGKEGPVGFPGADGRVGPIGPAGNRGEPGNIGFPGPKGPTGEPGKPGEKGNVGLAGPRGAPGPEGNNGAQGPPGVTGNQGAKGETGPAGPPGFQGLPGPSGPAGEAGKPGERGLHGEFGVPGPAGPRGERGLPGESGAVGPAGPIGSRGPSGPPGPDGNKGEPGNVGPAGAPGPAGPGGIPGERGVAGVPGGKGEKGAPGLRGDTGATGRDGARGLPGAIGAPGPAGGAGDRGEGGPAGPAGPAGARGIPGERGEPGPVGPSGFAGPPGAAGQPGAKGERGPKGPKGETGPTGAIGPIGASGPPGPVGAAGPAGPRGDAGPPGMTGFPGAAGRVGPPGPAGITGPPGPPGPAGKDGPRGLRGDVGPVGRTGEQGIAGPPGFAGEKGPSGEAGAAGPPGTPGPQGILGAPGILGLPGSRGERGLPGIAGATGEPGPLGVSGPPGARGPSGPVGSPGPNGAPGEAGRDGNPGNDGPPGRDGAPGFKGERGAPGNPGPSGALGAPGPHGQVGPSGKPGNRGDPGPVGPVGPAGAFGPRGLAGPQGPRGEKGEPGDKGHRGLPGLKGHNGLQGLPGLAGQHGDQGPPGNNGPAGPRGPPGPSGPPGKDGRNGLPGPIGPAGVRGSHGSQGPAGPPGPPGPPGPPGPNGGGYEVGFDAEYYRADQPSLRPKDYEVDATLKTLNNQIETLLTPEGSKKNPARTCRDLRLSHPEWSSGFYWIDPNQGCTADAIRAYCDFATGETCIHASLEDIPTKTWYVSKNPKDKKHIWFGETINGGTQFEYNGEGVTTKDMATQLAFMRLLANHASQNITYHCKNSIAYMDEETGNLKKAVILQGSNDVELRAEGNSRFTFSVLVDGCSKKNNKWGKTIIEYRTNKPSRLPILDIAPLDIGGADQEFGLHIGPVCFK

B1: procollagen C-proteinase pCP-1 (730 amino acids), recombinant, in medium of transfected HT-1080 cells (protein)
chain: AATSRPERVWPDGVIPFVIGGNFTGSQRAVFRQAMRHWEKHTCVTFLERTDEHSYILFTYRPCGCCSYVGPRGGGPQAISIGKNCDKFGIVVHELGHVVGFWHEHTRPDRDRHVSIVRENIQPGQEYNFLKMEPQEVESLGETYDFDSIMHYARNTFSRGIFLDTIVPKYEVNGVKPPIGQRTRLSKGDIAQARKLYKCPACGETLQDSTGNFSSPEYPNGYSAHMHCVWRISVTPGEKIILNFTSLDLYRSPLCWYDYVEVRDGFWRKAPLRGRFCGSKLPEPIVSTDSRLWVEFRSSSNWVGNGFFAVYEGICGGDVKKDYGHIQSPNYPDDYRPSKVCIWRIQVSEGFHVGLTFQSFEIERHDSCAYDYLEVRDGHSESSTLIGRYCGYEKPDDIKSTSSRLWLKFVSDGSINKAGFAVNFFKEVDECSRPNRGGCEQRCLNTLGSYKCSCHPGYELAPDKRRCEAACGGFLTKLNGSITSPGWPKEYPPNKNCIWQLVAPTQYRISLQFDFFETEGNDVCKYDFVEVRSGLTAHSKLHGKFCGSEKPEVITSQYNNMRVEFKSDNTVSKKGFKAHFFSENRPALQPPRGPPHQLKFRVQKRNRTPQ
C-proteinase activity: cleavage of 14C-labeled type I procollagen, SDS-polyacrylamide gel: Medium from neomycin-resistant clones expressing either pCP-1 or pCP-2 contained enzymatic activity that specifically cleaved type I procollagen into the products predicted by the introduction of C-proteinase

B2: procollagen C-proteinase pCP-2 (986 amino acids), recombinant, in medium of transfected HT-1080 cells (protein)
chain: AATSRPEPVWPDGVIPFVIGGNFTGSQRAVFPQAMRHWEKHTCVTFLERTDEDSYILFTYAPCGCCSYVGRRGGGPQAISMGKNCDKFGIVVHELGHVVGLWHEHTGPDRDRQVSIVRENIQPGQEYNFLKMEPQEVESLGETYDFDSIMHYARNTFSRGIFLDTIVPKYEVNGVKPPIGQRTRLRKGDIAQAPKLYKCPACGETLQDSTGNFSSPEYPNGYSAHMHCVWRICVTPGEKIILNFTSLDLYRSGLCWYQYVEVRDGFWRKAPLRGRFCGSKLPEPIVSTDSRLWVQFRSSSNWLGKGFFPVYEAMWGGDVKKDYGQIQSPNYPDDYRPSKVWMWRIQVSEGFDVGLTFQSFEIERHDSCGYDYLEVRDGHSESSTLIGRYCRYEKPDEIKSTSSPLWLKFVSDGSINKPGFAVNFFKEVDECSRPNRGGCEQRCLNTLGSYKWSCDPGYELPPEKRRCEAPCGGFLTKLNGSISRGGWPKEYPPNKNCIWQLVAPTQYRISLQFDFFETEGNDVCKYDFVEVRSGLTADSKLHGKFCGSEKPEVITSQYNNMRVEFKSDNTVSKKGFKAHFFSDKDECSKDNGGCQQDCVNTFGSYECQCRSGFVLHDNKHDCKEPGCDHKVTSTSGTITSPNWPDKYPSKKECTWAISSTPGHRVKLTFMEMDIESQPECAYDHLEVFDGRDAKAPVLGRFCGSKKPEPVLGTGSRMFLRFYSDNSVQRKGFQASHATECGGQVGADVKTKDLYSHAQFGDNNYPGGVDCEWVIVPEEGYGVEVLFQTFEVEDQTDCGYHYMELFDGYDSTAPRLGRYCGSGPPEEVYSAGDSVLVKFHSDDTITKKGFHLRYTSTKFQDTLHSRK
C-proteinase activity: cleavage of 14C-labeled type I procollagen, SDS-polyacrylamide gel: Medium from neomycin-resistant clones expressing either pCP-1 or pCP-2 contained enzymatic activity that specifically cleaved type I procollagen into the products predicted by the introduction of C-proteinase; also recorded: Complete cleavage of type I procollagen to pNα1 (I) chains, pNα2 (I) chains and the C-propeptide were obtained with medium from a clone transfected with pCP-2 and partially fractionated and concentrated by membrane filtration

B3: recombinant pCP-2 with a 6-histidine tag, expressed in E. coli, refolded, without chymotrypsin activation (protein)
chain: LDFPDYTYDLAEEDDSEPLNYKDPCKAAAFLGDIALDEEDLRAFQVQQAVDVRRHTARKSSIKAAVPGNTSTPTCQSTNGQPQRGACGRWRGRSRSRRAATSRPEPVWPDGVIPFVIGGNFTGSQRAVFPQAMRHWEKHTCVTFLERTDEDSYILFTYAPCGCCSYVGRRGGGPQAISMGKNCDKFGIVVHELGHVVGLWHEHTGPDRDRQVSIVRENIQPGQEYNFLKMEPQEVESLGETYDFDSIMHYARNTFSRGIFLDTIVPKYEVNGVKPPIGQRTRLRKGDIAQAPKLYKCPACGETLQDSTGNFSSPEYPNGYSAHMHCVWRICVTPGEKIILNFTSLDLYRSGLCWYQYVEVRDGFWRKAPLRGRFCGSKLPEPIVSTDSRLWVQFRSSSNWLGKGFFPVYEAMWGGDVKKDYGQIQSPNYPDDYRPSKVWMWRIQVSEGFDVGLTFQSFEIERHDSCGYDYLEVRDGHSESSTLIGRYCRYEKPDEIKSTSSPLWLKFVSDGSINKPGFAVNFFKEVDECSRPNRGGCEQRCLNTLGSYKWSCDPGYELPPEKRRCEAPCGGFLTKLNGSISRGGWPKEYPPNKNCIWQLVAPTQYRISLQFDFFETEGNDVCKYDFVEVRSGLTADSKLHGKFCGSEKPEVITSQYNNMRVEFKSDNTVSKKGFKAHFFSDKDECSKDNGGCQQDCVNTFGSYECQCRSGFVLHDNKHDCKEPGCDHKVTSTSGTITSPNWPDKYPSKKECTWAISSTPGHRVKLTFMEMDIESQPECAYDHLEVFDGRDAKAPVLGRFCGSKKPEPVLGTGSRMFLRFYSDNSVQRKGFQASHATECGGQVGADVKTKDLYSHAQFGDNNYPGGVDCEWVIVPEEGYGVEVLFQTFEVEDQTDCGYHYMELFDGYDSTAPRLGRYCGSGPPEEVYSAGDSVLVKFHSDDTITKKGFHLRYTSTKFQDTLHSRK
C-proteinase activity in a standard reaction system with 14C-labeled procollagen: No C-proteinase activity was observed when the recombinant protein was incubated in a standard reaction system without prior activation of the protein by digestion with chymotrypsin

B4: recombinant pCP-2 with a 6-histidine tag, expressed in E. coli, refolded and activated by limited digestion with chymotrypsin (protein)
chain: B2 chain
C-proteinase activity in a standard reaction system with 14C-labeled procollagen: Specific C-proteinase activity was observed (Lanes 1 to 4 in FIG. 5 ) after limited digestion with chymotrypsin
specific activity relative to C-proteinase isolated from chick embryo tendons: about 1/30-th of the specific activity of C-proteinase isolated from chick embryo tendons
